# Reference: US7790697B2, “Compositions and methods for inhibiting the synthesis or expression of MMP-1” (Trustees of Dartmouth College, priority 2004, dated 2010)
# What was measured:
# MDA-231 cells [1] = assay: Tumorigenesis studies in nude mice, mammary fat pad injection of MDA-231 cells; type: in vivo
# Protocol: Tumorigenesis Studies in Mice. Pooled MDA-231 stable cell lines containing either the empty vector or the MMP-1 shRNA (1×10^6 cells/100 μL HBSS) were injected into the 4th inguinal fat pad of twenty-one female, 6-week-old nude mice (NU/NU; Charles River Laboratories, Wilmington, Mass.) using 28 gauge×½″ single-use insulin needles. Mice were examined weekly until tumors were grossly apparent, then they were examined several times per week. Each tumor was measured twice with Vernier calipers, and tumor volume was calculated using the formula: 4/3πr^3. When the two measurements differed, the smaller radius measurement was squared and multiplied by the largest radius measurement. This number was then substituted for the r^3 portion of the formula.
# The in vivo efficacy of the shRNA-mediated reduction of MMP-1 in the MDA-231 cells was analyzed. Nude mice were injected in the fourth inguinal mammary fat pad with MDA-231 cells containing either the empty vector or the MMP-1 shRNA. At week 6, tumors began to appear in the inguinal pad of several mice and at week 11, the mice were sacrificed.
# MDA-231 cells [2] = assay: Cell proliferation assay (MTT); type: cell-based; settings: from 24 to 48 hours (in 24 hours); p=0.13 vs empty vector
# Protocol: Cell Proliferation Assay. The proliferation rate of the stably transfected MDA-231 cell lines at 24 and 48 hours was determined with a MTT assay as described in the manufacturer's protocol (ATCC). The optimum cell count was 10,000 cells per well of a 96-well tissue culture dish.
# Therefore, the only measured differences between the two groups of cell lines were the levels of MMP-1 mRNA and protein.
# MMP-1 protein = assay: ELISA for MMP-1 protein in serum-free medium of stable MDA-231 cells; type: cell-based, human; settings: for ng of MMP-1 protein per μg of total protein: average ± S.D.
# Protocol: ELISA for MMP-1 Protein. MMP-1 protein in serum-free culture medium of stably transfected MDA-231 cells was quantified with the human MMP-1 BIOTRAK™ ELISA system that measures both latent and active enzyme (Amersham). Cells were grown in six-well culture dishes with 1 mL of serum-free medium, and after 24 hours of incubation, 100 μL of a 1:30 dilution of the medium was used for the ELISA assays. The cells remaining in the wells were lysed with 350 μL passive lysis buffer (PROMEGA®, Madison, Wis.), and 70 μl was used in a Bradford assay (BIO-RAD®, Hercules, Calif.) to determine the total protein content. The ng of MMP-1 protein from the ELISA results was normalized to μg total protein.
# After initial neomycin selection and isolation of individual stable cell lines, MMP-1 mRNA and protein levels were determined using quantitative RT-PCR (qRT-PCR) and ELISA. MMP-1 mRNA levels were measured in RNA harvested from stably transfected cell lines after a 24 hour incubation in serum-free medium and were normalized to GAPDH mRNA levels. MMP-1 protein levels were measured in the serum-free media of the cell lines after 24 hours of incubation and were normalized to total protein content of the cells. The ELISA measured total (active and zymogen) forms of MMP-1 protein. […] To control for differences introduced into the cell lines during selection, these three individual cell lines for each group were pooled, and all subsequent experiments were performed on pooled cells.
molecule,measurement,setting,value
"MMP-1 shRNA: Vector-expressed small hairpin RNA, SEQ ID NO:1 (sense) and SEQ ID NO:2 (antisense), specific to bases 234-252 of MMP-1 mRNA (nucleic acid, the letters are possibly those of the target site) sense: GATCCCCACCAGATGCTGAAACCCTGTTCAAGAGACAGGGTTTCAGCATCTGGTTTTTTGGAAA antisense: AGCTTTTCCAAAAAACCAGATGCTGAAACCCTGTCTCTTGAACAGGGTTTCAGCATCTGGTGGG",average tumor size at time of sacrifice,"MDA-231 cells [1]; week 11, mean±s.e., n=10, p=0.027 vs empty vector",272±117 mm^3
same,frequency of tumor formation,"MDA-231 cells [1]; week 11, n=23, p=0.11 vs empty vector (57%), Fisher's exact test",36%
same,fold increase in metabolic activity,MDA-231 cells [2],2.03±0.06 fold
same,ng of MMP-1 protein per μg of total protein,"MMP-1 protein; Group of cell lines D1, Y2, Y7, P=0.002 vs empty vector",0.46 ± 0.04 ng per μg of total protein
same,ng of MMP-1 protein per μg of total protein,MMP-1 protein; MDA-231 cell line D1,0.49 ± 0.03 ng per μg of total protein
same,ng of MMP-1 protein per μg of total protein,MMP-1 protein; MDA-231 cell line Y2,0.47 ± 0.01 ng per μg of total protein
same,ng of MMP-1 protein per μg of total protein,MMP-1 protein; MDA-231 cell line Y7,0.42 ± 0.04 ng per μg of total protein
same,reduction in MMP-1 protein levels compared to empty vector cell lines,"MMP-1 protein; three stable MDA-231 cell lines, 24 hour serum-free medium",greater than 90%
